# Measured values: the DeepSol protein solubility set
# Test: soluble on expression in E. coli; label from the status in PepcDB or PDB records
row,Sequence,soluble on expression in E. coli
1,MTNLTNYHSHCLYCDGRANMEDFIRFAISEGFSSYGISSHAPLPFSTAWTMEWDRMDDYLSEFARLKEKYADKIELAIGLEIDYLNEESHPAIPRFQELPLDYRIGSVHMLYSPQGKVVDIDTPADIFRQLIDAHFEGDLDYVVHLYYKNLLRMVELGGFDILGHADKMHYNASCYRPGLLDEPWYDALVRDYFAEIARHGYIVEINTKSYHDLGTFYPNERYFPLLKELGIRVQVNSDAHYPERINNSRAEALAALKKVGFDTVVEWHGGQWKDMPLLQ,not soluble
2,MGSDKIHHHHHHDSLTESSSNTFWQTPDDALMALASCYDALQSNQLYNSDQYSLGPLYMDCISDNGGHFNWSGWMEGYDMAMGIHTPSSSIIGSYWKDCYEVISRCNVLIANIDRVDMDASQKAIYQAEAKTIRALMYINLTMTYQDVPFLTAPLTIDEAECEKTDRAAIVAHVMTDLQDAAEVLPQNASSRGHITKGAALSLLGRVALYNEKWDDAIAAYKQVQGLGYSLDPSYAKLFTQSGETSPEIIFAVRYEGPGMSEGAAFNAHWNTPLEAMNGTIDLADAYYCKDGKPTTDTKIAELNGGGGLDVSKPNPAHFENRDPRLYSTLFVPGMLWNGKGGIDTSASNPYANVYGGAAASLSTVYVYKYFDPTDTSNSWDNGQDFYVVRYAEVLLSLAEAMVQKGGYVYSDVTALVNEVRQRADVNMPTVEEVEGTSLSKDELLEVIKHERRVELAFEGLRLFDLYRWKELDKAVANIENERTMYGLAYEARKFNGERDYVWPLPTAELDTNKKLVQHDLWK,not soluble
3,GPHSLRYFVTAVSRPGLGEPRFIAVGYVDDTQFVRFDSDADNPRFEPRAPWMEQEGPEYWEEQTQRAKSDEQWFRVSLRTAQRYYNQSKGGSHTFQRMFGCDVGSDWRLLRGYQQFAYDGRDYIALNEDLKTWTAADTAALITRRKWEQAGDAEYYRAYLEGECVEWLRRYLELGNETLLRTDSPKAHVTYHPRSQVDVTLRCWALGFYPADITLTWQLNGEDLTQDMELVETRPAGDGTFQKWAAVVVPLGKEQNYTCHVHHKGLPEPLTLRWKLPPSTVSN,soluble
4,MTGSNSHITILTLNINGLNSAIKRHRLASWIKSQDPSVCCIQETHLTCRDTHRLKIKGWRKIYQANGKQKKAGVAILVSDKTDFKPTKIKRDKEGHYIMVKGSIQQEELTILNIYAPNTGAPRFIKQVLSDLQRDLDSHTLIMGDFNTPLSTLDRSTRQKVNKDTQELNSALHQADLIDIYRTLHPKSTEYTYVRVRDGHVSQSKIDHIVGSKALLSKCKRTEIITNYLSDHSAIKLELR,soluble
5,MKITPLDIQQQQFKGKMLGGIDPEDVDSFLQLVAQEMEGLIRENTDLREQCRKAAADAEQTARQERELREAMLAAQKITEEMKANAQKEASLIVSEAEVKAEKILVDAERRLGQLNEQLQDLRRQKLQFESAFKALLDTHYKMISLEDA,not soluble
6,MTKKVGVGQAHSKIILIGEHAVVYGYPAISLPLLEVEVTCKVVSAESPWRLYEEDTLSMAVYASLEYLDITEACVRCEIDSAIPEKRGMGSSAAISIAAIRAVFDYYQADLPHDVLEILVNRAEMIAHMNPSGLDAKTCLSDQPIRFIKNVGFTELEMDLSAYLVIADTGVYGHTREAIQVVQNKGKDALPFLHALGELTQQAEVAISQKYAEGLGLIFSQAHLHLKEIGVSSPEADFLVETALSYGALGAKMSGGGLGGCIIALVTNLTHAQELAERLEEKGAVQTWIESL,not soluble
7,MGLDIRFTGVADSSGALHDPDGLDIRGVLEHKKRAGLGSHPSGYEGMTGDELLDEAEYDCLVEATPTNIEDGEPGRSLVLKAMGDGKHVVTSNKGHLALFYSELMEAASEAGVEFMFEASVGGAMPIINLARETLASCTIESVIGILNGTTNFILSRMASEGSSYRQALIEAQELGIAETNPAQDVEGTDAACKAVIIANSILGRPCTLRDVRVEGITGITQGAIELAAQEGYLIKLIAEISGDRLEVGPRLVRMGSPYAVDGTLNMATLRTDLAGEVTAVGRGAGSLETASAMLTDTITIWRKSGLEHHHHHH,not soluble
8,MGSDKIHHHHHHMENHTDIETLLTKYFEGNTTPPENEQIEAWLNADEEHLRIAKQLNTLYLAVDTQHITKKIDTEKALDKVKSRTKVRNLSWWGWTQRIAAILSVPLLIGVLALYPDRQQPVVTAQMVEIKTNAGMTTSVLLPDSTVVHLNSESSLRYPTFFAGDVRQVELNGEAYFDVTQHPRKRFIVSTPHHSQVEVYGTSFNVEAYGNETPISTTLIEGSVGFIYKNSKGKFQKSMLSPRQKLVYSPQTGDIKCYATSGESEISWKDGKLIFNDTPLDEVLHMLGKRFNVEFVLSNKGLKGCSFTGTFTHQRLERIMEYFRISSHIRWRYIDSADIKTEKLKIEVY,not soluble
9,MGSSHHHHHHSSGLVPRGSHMNAPIETDVLILGGGPVGMALALDLAHRQVGHLVVEQTDGTITHPRVGTIGPRSMELFRRWGVAKQIRTAGWPGDHPLDAAWVTRVGGHEVYRIPLGTADTRATPEHTPEPDAICPQHWLAPLLAEAVGERLRTRSRLDSFEQRDDHVRATITDLRTGATRAVHARYLVACDGASSPTRKALGIDAPPRHRTQVFRNILFRAPELRSLLGERAALFFFLMLSSSLRFPLRALDGRGLYRLTVGVDDASKSTMDSFELVRRAVAFDTEIEVLSDSEWHLTHRVADSFSAGRVFLTGDAAHTLSPSGGFGMNTGIGSAADLGWKLAATLRGWAGPGLLATYEEERRPVAITSLEEANVNLRRTMDRELPPGLHDDGPRGERIRAAVAEKLERSGARREFDAPGIHFGHTYRSSIVCGEPETEVATGGWRPSARPGARAPHAWLTPTTSTLDLFGRGFVLLSFGTTDGVEAVTRAFADRHVPLETVTCHAPEIHALYERAHVLVRPDGHVAWRGDHLPAELGGLVDKVRGAA,soluble
10,MGSDKIHHHHHHMQDNLIEIRDLRVAFNGHEVVHGISLDIRRGECLALVGESGSGKSVTAHSILRLLPPKNVSTQGSIRYDGLDLVTASDKQLRSLRGNRVAMIFQEPMSSLNPLHTVEKQIGEILVTHKGLKGKAALSRTLELLELVGIREPLLRLKAYPHQLSGGQRQRVMIAMALANEPDLLIADEPTTALDVTVQVKILELLKSLQQRLNMSLLLISHDLNLVRRIAQRVCVMREGEIVEQADCQALFDNPQHPYSRLLINAEPDGEPVPSTHSNTLLSVQDLKVWFPLGKAWFQREQQYVKAVDGVSFELLKGKTLGIVGESGSGKSTLGQAILRLVDSEGSIRFGTKELSLHSQHLMRPLRRQLQVVFQDPFGSLSPRMTVEQIIAEGLVTHKIGTPKEREQTVIRVLQEVGLDPATRHRYPHEFSGGQRQRISIARALVLEPDLILLDEPTSALDRTVQKQIVALLRDLQIRHGLTYLFISHDLAVVHALAHDLIVIKDGKVVEQGPSREIFAAPQQAYTQELLRSSGLVFA,not soluble
11,DPAGLLDLRQGMFAQLVAQNVLLIDGPLSWYSDPGLAGVSLTGGLSYKEDTKELVVAKAGVYYVFFQMELRRVVAGEGSGSVSLALHLMPLRSAAGAAALALTVDLPPASSEARNSAFGFQGRLLHLSAGQRLGVHLHTEARARHAWQLTQGATVLGLFRVTPEIPA,soluble
12,MISRVGADLGLSATAHVPRTDEPQKAKDFTTDQEVRWCPGCGDYVILATIRSFLPELGLRRENLMFVSGIGCSSRFPYYLDTYGLHSIHGRAPAIATGLAVTRPDLSVWVVTGDGDALSIGGNHLIHALRRNVNMTILLFNNRIYGLTKGQYSPTSEVGKVTKSTPLGSVDHPFNTLSLALGAEATFAARAMDSDRKGLTEVLRQAAAHRGTSFVEIYQDCPIFNDGSFDVLRKDGSEQRLIPLTHGEPIVFGGAGEYCVVRSGFGLKVVATADVDRDDIVVHDAHTDDPDYAYALSRLSDQDLTHTVTGVFRSVTRDTYDDMVRLQNEIAQEKDPVDDGSLQRLLTGHDTWTVE,not soluble
13,MGELIEGVWHPNWYDTASNGGRFVRSRARFRNWITADGSPGPSGEGGFPAEAGRYHLYVAHACPWAHRTMIFRALKDLAPLIDVSVVHPEMLEDGWTFDRSFPGATGDRLYGLAFLREIYLKADPGISARVTVPVLWDRKRETIVSNESAEIIRMFNAAFDHLTGNRVDFLPEGDLAEIDRLNDRIYGTVNNGVYRAGFATTQEAYDEAAAPLFETLDWLEERLATRRYLVGDRLTEADWRLFTTLVRFDKVYHTHFKCNRRQIVQYPNLWGWLRELWQVPGVAETVHFDHIVRHYYFSHDTINPHRIVPLTPDPDFAAPHGRDQLFQASRLR,not soluble
14,MGSDKIHHHHHHMKFLFIVQGEGRGHLTQAITLEEMLLRNGHEVVEVLVGESSSRILPGFFNRNIQAPVKRFISPNFLPAADNKRANLKKSFTYNLLRIPEYFRSMCYINQRIKETGAEVVINFYELLTGLTYALFRPSVPYVCVGHQYLFLHQNFEFPDKNSFELRMLRFFTKMTAVRSSKKLALSFNDMEPDRGQQVVVVPPLIRQEVTAIQPEEGNYIHGYMVNSGFADSVEEFHTIYPEVPLRFFWDKADAEEVTRIDETLSFYQIDDVKFLNGMAGCRAYATTAGFESICEAMYLGKPVLMVPAHIEQDCNAHDAMRAGAGIISDSFDLKPLLRFAGTYSPNRTFVRWVRSGERRIILELEKLAASQSAITSIPTFTNYLPI,not soluble
15,MAGDRKRGFIRPDEDYALIEPQRWGLPDYGDSKEKKAKQTAFNYDPSWVPNFDEPEEEQALELTEEQIELIKQGAYQEGLYQGQEAGFKQGYDKGKEEGLQAGHAEGLELGKAEGVSAGQEFIQQQVEVFMNLANQFAQPLELMNAQVEKQLVDMVLCLVKEVVHVEVQTNPQIILDTVKQSVEALPISGHPITLHLNPEDVAIIRSAYGEEDLDCRNWTLVSEPSLNRGDVQIEAGESSINYRMEERIKSVLHSFCGANRHQEGELEHHHHHH,soluble
16,MPRHETDCRYFANGYCSKGNTCTFTHDVATRNENICHFNLVGKCSYGRACRFLHTRPRNDELPSCSTPQTSQNQQNLQNSGQRVRPKQLPELKFNAQAAEFVPRWKMPQRGPVTSYAGAAASADHGESSSSFQSSHEQAQLMMCPYHQKSGDCNRQDMDCPFAHGNYCDMCQQWSLHPYNAELRKKHENECVANHTTEMERAFLLQKTEQKTCGICMENIFEKNLRFGILNGCQHCFCLDCIRQWRSKDQENVELATKTVRSCPECRQHSDYVIPSLFWVESGQEKDLLIEMYKENTKRKICKYYSNERSRGACPFGNKCFYKHQLPDGSIDPGEAPSSRRRPRLVDFLFDDNSDSDEETFRRFQEEHEEEQEELLRFVAETLPEADEESELFRQITEVLRHYQISGHRRGFQ,not soluble
17,MKTTLFYIMFAYALSTAFPSMMLAQASSIAEVNQGQASKMVIDSSARVLSTLEQQRAQFRQDPKALRQFMETEFTTIFDRDYAARLVLGKYARNASDTDVKLFADAITENLMQRYGNALLTFEGKPNFRAKSESRLPGNRNVRVSTELIRSGADPVAVDYLLRNVNGQWKIFDVMIEGISYVQTFRNQFDAPLRQKGIAQVAAELRSGNLQVGKSNGKAAALEHHHHHH,soluble
18,MESKSVDTRSIYRELGATLSYNMRLGNGMEIEPWLKAAVRKEFVDDNRVKVNSDGNFVNDLSGRRGIYQAGIKASFSSTLSGHLGVGYSRGAGVESPWNAVVGVNWSF,not soluble
19,MSVNFFSLITSSWERGLFLKSCKNNSGTDSNRFFSFSVPPNLLDNLLPPLLVRKTLSSSSSKSCGIGGIYFKSSAVNVSEDGLTASTFFSILLPKNFLGITKLFCRIFLLSCPHNYKWFIHLINPFEYENFINIE,soluble
